Protein stability index data for 26 sequences are collected here from the supplement of paper PMC9732359.

± gives the uncertainty stated by the source.

This data set in a line: protein stability index of a GFP-peptide fusion (yeast GPS) (PSI 1-4); higher = more stable; sorted into four equal gates, so the index is relative within each strain. Summed up: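 Plasmids in a pooled yeast library fused tiled 17-residue yeast protein peptides downstream of GFP and also expressed Cherry. Mid-log cultures grown without leucine were sorted into four equal gates by GFP/Cherry fluorescence ratio. Each gate's plasmids were PCR-amplified and Illumina-sequenced, and reads were matched to strains by barcodes. The protein stability index is derived by multiplying each gate's read frequency by its gate number and summing the results.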

Regarding QETEGTNRHTLALETVL [SIR3], the protein stability index runs as follows: (doa10∆) 2.72 ± 0.063; (pdr5∆) 2.57 ± 0.054; (san1∆) 2.53 ± 0.06; (ubr1∆) 2.83 ± 0.041.
For the sequence NYLNDMHDSNLQNNSDS [SKP1], the protein stability index reads like this: (doa10∆) 2.48 ± 0.12; (pdr5∆) 2.59 ± 0.063; (san1∆) 2.3 ± 0.08; (ubr1∆) 2.7 ± 0.054.
In the same order, the values of TRGPFHFRAPSRILYKA [RPL16B] are 2.3 ± 0.064, 2.43 ± 0.045, 2.08 ± 0.068 and 2.27 ± 0.042.
The sequence DELRKQELISKAFTNWN [ISW2] gave a protein stability index (doa10∆) of 2.04 ± 0.065, a protein stability index (pdr5∆) of 2.45 ± 0.078, a protein stability index (san1∆) of 2.4 ± 0.089 and a protein stability index (ubr1∆) of 2.23 ± 0.067.
In the same order, the values of TANANKPAFSFGATTND [YJL041W/NSP1] are 3.01 ± 0.07, 2.74 ± 0.051, 2.91 ± 0.047 and 2.88 ± 0.039.
Sequence SDELHNQSTIYEDEELS [LIN1] came in with a protein stability index (doa10∆) of 3 ± 0.079, a protein stability index (pdr5∆) of 2.87 ± 0.098, a protein stability index (san1∆) of 3.11 ± 0.07 and a protein stability index (ubr1∆) of 2.97 ± 0.077.
Turning to VVEDKPLLSKKERLVRD [SMB1], the protein stability index is 1.14 ± 0.063 (doa10∆), 1.2 ± 0.043 (pdr5∆), 1.21 ± 0.13 (san1∆) and 1.49 ± 0.056 (ubr1∆).
In the same order, the values of KFLQEFINLLLNCCGSV [IRR1] are 2.07 ± 0.11, 1.74 ± 0.091, 1.57 ± 0.11 and 1.8 ± 0.062.
In the same order, the values of KFHKREVVEAVTVVDTP [RPL3] are 1.44 ± 0.075, 1.55 ± 0.066, 1.63 ± 0.18 and 1.45 ± 0.069.
Regarding DVNTNANANANATANAT [SNF11], the protein stability index (doa10∆) is 3.13 ± 0.088, the protein stability index (pdr5∆) was 3.27 ± 0.081, the protein stability index (san1∆) came out at 3.23 ± 0.045 and the protein stability index (ubr1∆) is 3.32 ± 0.063.
Take AAMVPFIKFKLIQQVPP [CDC53]: the protein stability index runs as follows: (doa10∆) 2.12 ± 0.062; (pdr5∆) 1.92 ± 0.07; (san1∆) 2.17 ± 0.1; (ubr1∆) 2.07 ± 0.068.
For IVSFIVNCFHEDTELYQ [YJL039C/NUP192], in that order: 1.62 ± 0.051, 1.71 ± 0.051, 2.22 ± 0.055 and 2.46 ± 0.036.
In the same order, the values of QISIIDIWSISKKRQAE [YML031W/NDC1] are 2.32 ± 0.056, 2.63 ± 0.052, 2.54 ± 0.053 and 2.79 ± 0.039.
For KLKRNSDRREHDEKLSD [LIN1], in that order: 3.51 ± 0.23, 2.49 ± 0.16, 3.22 ± 0.11 and 2.96 ± 0.13.
As for KPENKTDKVSLSQPVSA [SIR4], the protein stability index runs as follows: (doa10∆) 2.81 ± 0.055; (pdr5∆) 2.68 ± 0.052; (san1∆) 2.49 ± 0.063; (ubr1∆) 2.14 ± 0.037.
For NMPNCDYLTLNKVVVNL [RPN2], in that order: 2.99 ± 0.054, 2.88 ± 0.061, 2.58 ± 0.068 and 3.02 ± 0.051.
In the same order, the values of HIRKASSKKSKRLDKVG [LRP1] are 3.21 ± 0.087, 2.78 ± 0.1, 2.97 ± 0.061 and 2.95 ± 0.066.
For RNVTIQLENADTGTLDT [RPN2], in that order: 3.11 ± 0.095, 3.2 ± 0.082, 3.13 ± 0.069 and 3.2 ± 0.093.
Turning to ILNEVFTNPSIVKVFHG [RRP6], the protein stability index is, setting by setting: (doa10∆) 1.24 ± 0.083; (pdr5∆) 1.42 ± 0.075; (san1∆) 1.2 ± 0.18; (ubr1∆) 1.29 ± 0.05.
In turn, IGDTIADGPTMREITET [RPO21] yielded a protein stability index (doa10∆) of 3.48 ± 0.11, a protein stability index (pdr5∆) of 3.52 ± 0.092, a protein stability index (san1∆) of 3.52 ± 0.045 and a protein stability index (ubr1∆) of 3.39 ± 0.059.
In the same order, the values of QMMSKGIGALFTQQELQ [RPC34] are 3.3 ± 0.11, 3.26 ± 0.12, 3.12 ± 0.07 and 3.34 ± 0.08.
For DRGLSIKLNGSTLLCTD [SNU114], in that order: 3.17 ± 0.14, 2.76 ± 0.08, 2.34 ± 0.092 and 3 ± 0.2.
For GKGLQSAIDVLDPLTKD [RPN2], in that order: 2.28 ± 0.069, 2.56 ± 0.079, 2.44 ± 0.1 and 2.81 ± 0.069.
LNVPVFQIVIEPLAIAL [ARP7]: the protein stability index amounted to 1.65 ± 0.052 (doa10∆), 1.66 ± 0.055 (pdr5∆), 1.48 ± 0.078 (san1∆) and 1.25 ± 0.045 (ubr1∆).
For SFALPFEEDEKNSDVWF [RPN8], in that order: 3.28 ± 0.08, 3.23 ± 0.072, 3.14 ± 0.051 and 3.26 ± 0.06.
As to HPYEYEIDHQEYSPEIL [RRP6], the protein stability index amounted to 2.75 ± 0.048 (doa10∆), 2.69 ± 0.042 (pdr5∆), 2.83 ± 0.059 (san1∆) and 2.76 ± 0.035 (ubr1∆).
